Measurements reported in the supplement of paper PMC7125110.
± gives the standard error. Variants at the floor of the assay were thinned out.

B1: glmS ribozyme (parent)
chain: AUAAAAGCGCCAGAACUACAGAAAUGUAGUUGACGAGGAGGAGGUUUAUCGAAUUUUCGGCGGAUGCCUCCAAA

Variants of: B1
Test: self-cleavage kobs at 2500 uM GlcN6P; higher = faster cleavage; RNA array
Settings: with glucosamine-6-phosphate
How it was run: (§1)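 Glucosamine-6-phosphate, from 40 μM to 10 mM in HEPES/KCl/Mg(OAc)2 buffer, was flowed over sequenced MiSeq chips carrying barcoded ribozyme variants transcribed in situ by E. coli RNA polymerase. A hybridised Cy3 probe tracked the variants at 37 °C as tiles were imaged over ~14 h. kobs, kcat and KM were obtained by fitting normalised per-tile medians to exponential decays and then applying weighted Michaelis–Menten fits across concentrations.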

Row | Variant | self-cleavage kobs at 2500 uM GlcN6P
1 | AUAAAAGCGCCAGAACUACAGAAAUGUACUUGACGAGGAGGAGGUUUAUCGAAUUUUGCGAGAAUGCCUCCAAA [G29C C58G G59C C61A G63A] | < 1e-05 s⁻¹
2 | AUAAAAGCGCCAGAACUACAGAAAUGUAUUUGACGAGGAGGUGGUUUAUCGAAUUUUCGGCGGAUGCAUCUAAA [G29U A42U C68A C71U] | < 1e-05 s⁻¹
3 | AUAAAAGCGCCAGAACUACAGAAAUUUAGUUUACGAGGAGGAGGUUUAUCGAAUGUUCGGCGGAUGCCUCCAAA [G26U G32U U55G] | 0.000168 ± 8.2e-05 s⁻¹
4 | AUAAAAGCGCCAGAACUUCAGAAAUGUAGUUGACGAGGAGGAGGUUUAUCGAAUUUUCGGCGGAUGCCUCCAAA [A18U] | 0.00664 ± 0.0014 s⁻¹
5 | AUAAAAGCGCCAGAACUAAAGAAAUGUAGUUGACGAGGAGGAGAUUUAUCGAAUUUUCGGCGGAUGCCUCCAAA [C19A G44A] | 0.000112 ± 4e-05 s⁻¹
6 | AUAAAAGCGCCAGAACUACAGAAAUGUAUUUGACGAGGUGGAGGUUUAUCGAAUUUUCGGCGGAUGGCUCCAAA [G29U A39U C67G] | 0.00033 ± 9.8e-05 s⁻¹
7 | AUAAAAGCGCCAGAACUACAGAAAUGUACUUGUCGAGGAGGAGGUUUAUCGAAUUUUCGGCAGUUGCCUCCAAA [G29C A33U G62A A64U] | < 1e-05 s⁻¹
8 | AUAAAAGCGCCAGAACUACAGAAAUGUACUUGACGAGGAGGAGGUUUAUCGAAGUUUCGGCGGAUGCAUCGAAA [G29C U54G C68A C71G] | 9.33e-05 ± 4.3e-05 s⁻¹
9 | AUAAAAGCGCCAGAAUUACAGAAAUGUAGUGGACGAGGAGCAGGUUUAUCGAAUUUUCGGCGGAUGUCUCCAAA [C16U U31G G41C C67U] | < 1e-05 s⁻¹
10 | AUAAAAGCGCCAGAACUACAGAAAUGUAAUUGACGAGGAGGAGGUUUAUGGAAUAUUCGGCGGAUGCCUCCAAA [G29A C50G U55A] | 0.000211 ± 8.8e-05 s⁻¹
11 | AUAAAAGCGCCAGAAUUACAGAAAUGUAGCUUACUAGGAGGAGGUUGAUCGAAUUUUCGGCGGAUGCCUCCAAA [C16U U30C G32U G35U U47G] | < 1e-05 s⁻¹
12 | AUAAAAGCGCCAGAACUACAGAAAUGUACUUGACGAGGAGGAGGUUUAUCGAAUUUUCUGCGGAUCCCUACAAA [G29C G59U G66C C70A] | 0.000112 ± 2.7e-05 s⁻¹
13 | AUAAAAGCGCCAGAACUACAGAAAUGUAAUUGACGAGGAGGAGGUUUAUCGAAUUUUCGGCGAAUGCCUCCAAA [G29A G63A] | < 1e-05 s⁻¹
14 | AUAAAAGCGCCAGAACUACAGAAAUGUAAUUGACGAGGUUGAGGUUUAUCGAAUUUUCGGCGGAUGCCUCCAAA [G29A A39U G40U] | 0.000177 ± 3.8e-05 s⁻¹
15 | AUAAAAGCGCCAGAACUACAGAAAUGUAAUUGACGAGUAAGCGGUUUAUCGAAUUUUCGGCGGAUGCCUCCAAA [G29A G38U G40A A42C] | < 1e-05 s⁻¹
16 | AUAAAAGCGCCAGAACUACAGAAAUAUAGCUGACGAGGAGGAGGUUUAUCGAAUUUUCGGCGGAUGCCUCCAAA [G26A U30C] | 0.000125 ± 3.9e-05 s⁻¹
17 | AUAAAAGCGCCAGAACUACAGAAAUGUACUUGACGAGGAGAAGGUUUAUCGAAUUUUCGGCGGAUGCCUCCAAA [G29C G41A] | 7.06e-05 ± 3.1e-05 s⁻¹

Row | Variant | self-cleavage kobs at 2500 uM GlcN6P
18 | AUAAAAGCGCCAGAACUACAGAAAUGUACUUGACGAGGAGGAGCUUUAUUGAAUUUUCGGCGGAUUCCUCCAAA [G29C G44C C50U G66U] | < 1e-05 s⁻¹
19 | AUAAAAGCGCCAGAACUACAGAAAUGUAAUUGACGAGGAGGACGUUUAUCGAAUUUUCGCCGGAUGCCUCCAAA [G29A G43C G60C] | < 1e-05 s⁻¹
20 | AUAAAAGCGCCAGAACUACAGAAAUGUAAUUGACGGGUAGGAGGUUUAUUGAAUUUUCGGCGGAUGCCUCCAAA [G29A A36G G38U C50U] | < 1e-05 s⁻¹
21 | AUAAAAGCGCCAGAACUACAUAAAUGUAGUUGACGAGGAGGAGGUUUAUCGAAUUUUCGGCGGUUGCCUCCAAA [G21U A64U] | 0.000111 ± 2.9e-05 s⁻¹
22 | AUAAAAGCGCCAGAAUUACAGAAAUGUAGUUGACGAGGAGGAAGUUUAUCGAAUUUUCGGCGGAUGACACCAAA [C16U G43A C67A U69A] | 6.4e-05 ± 2.1e-05 s⁻¹
23 | AUAAAAGCGCCAGAACUACAGAAAUGUAUUUGACGAGGUGGAGGUUUAUCGAAUUUUCCGAGGAUGCCUCCAAA [G29U A39U G59C C61A] | < 1e-05 s⁻¹
24 | AUAAAAGCGCCAGAACUACAGAAAUGUAAUUGACGAGGAGGAGGUUUAUCGAAUUUUCGGCGCAUGCGUCCAAA [G29A G63C C68G] | 0.000233 ± 6.2e-05 s⁻¹
25 | AUAAAAGCGCCAGAACUACAGAAAUGUACUGGACGAGGAGGAGGUUUAUCGAAUUUUCGGCGGAUGCCUCCAAA [G29C U31G] | < 1e-05 s⁻¹
26 | AUAAAAGCGCCAGAAUUACAGAAAUGUAGUUGACGAGGAGGAGGUUUAUCGAAUUUACGGCGGAUGCCUGCAAA [C16U U57A C70G] | 5.1e-05 ± 2.1e-05 s⁻¹
27 | AUAAAAGCGCCAGAACUACAGAAAUGUAAUUCAAGAGGAGGAGGUUUGUCGAAUUUACGGCGGAUGCCUCCAAA [G29A G32C C34A A48G U57A] | < 1e-05 s⁻¹
28 | AUAAAAGCGCCAGAACUACCGAAAUGUAGUUGACGAGGAGGAGGUUUGUCGAAUUUUCGGCGGAUGCCUCCAAA [A20C A48G] | 0.000134 ± 2.6e-05 s⁻¹
29 | AUAAAAGCGCCAGAAUUACAGAAAUGUAGUUGACGAGGAGGUGGUUUAUCGAAGUUUCGGCGGAUGCCUCCAAA [C16U A42U U54G] | 0.000152 ± 3e-05 s⁻¹
30 | AUAAAAGCGCCAGAACUACAGAAAUCUAGUUGACGAGGAGGAGGUUCAUCGAAUUUUCGCCGGAUGCCUCCAAA [G26C U47C G60C] | < 1e-05 s⁻¹
31 | AUAAAAGCGCCAGAAUUACAGAAAUGUAGUUGACGAAGAGGAGGUCUAUCGAAUUGUCGGCGGAUGCCUCCAAA [C16U G37A U46C U56G] | 0.000119 ± 2.7e-05 s⁻¹
32 | AUAAAAGCGCCAGAACUACAGAAAUGUAAUUGACGAGGAGGAGGUUUAUCGAAUUUUCGGCGGAAGCCUCAAAA [G29A U65A C71A] | 4.59e-05 ± 1.7e-05 s⁻¹
33 | AUAAAAGCGCCAGAACUACAGAAAUGUACUUCACGAGGAGGAGGUUUAUCGAAUUUUCGGCGGAUGCCUCCAAA [G29C G32C] | 2.89e-05 ± 9.4e-06 s⁻¹
34 | AUAAAAGCGCCAGAACUACAGAAAUGUACUUGACGAAGAGGACGUUUAUCGAAUUUUCGGCGGAUGCCACCAAA [G29C G37A G43C U69A] | < 1e-05 s⁻¹

Variants of: B1
Test: self-cleavage kobs at 10000 uM GlcN6P; higher = faster cleavage; RNA array
Settings: with glucosamine-6-phosphate
How it was run: as §1

Row | Variant | self-cleavage kobs at 10000 uM GlcN6P
35 | AUAAAAGCGCCAGAACUACAGAAAUGUAAUUGACGAGUAAGCGGUUUAUCGAAUUUUCGGCGGAUGCCUCCAAA [G29A G38U G40A A42C] | < 1e-05 s⁻¹
36 | AUAAAAGCGCCAGAACUACAGAAAUGUACUUGACGAGGAGAAGGUUUAUCGAAUUUUCGGCGGAUGCCUCCAAA [G29C G41A] | 5.29e-05 ± 2.1e-05 s⁻¹
37 | AUAAAAGCGCCAGAACUACAGAAAUGUACUUCACGAGGAGGAGGUUUAUCGAAUUUUCGGCGGAUGCCUCCAAA [G29C G32C] | 9.51e-05 ± 1.2e-05 s⁻¹
